From PMC6509880

Target: apo-CrHydA1 ([4Fe4S]-CrHydA1, Chlamydomonas reinhardtii [FeFe] hydrogenase HydA1 lacking the [2Fe] subsite) (Chlamydomonas reinhardtii)

An H2 evolution (methyl viologen assay, GC) of 0.04 uM apo-CrHydA1 after 60 min at 37 °C with 0.04-1.2 uM [2Fe]^adt-CaHydF; excess of HydF needed for complete activation of 10 fold excess was found for “[2Fe]^adt-CaHydF (semi-synthetic HydF from Clostridium acetobutylicum loaded with [Fe2(adt)(CO)4(CN)2]^2-) (natural protein)” in this work.
